{"source": "patent US7794711B2", "about": "“Agent for treating chondroma and chondrosarcoma” (Chugai Seiyaku Kabushiki Kaisha, priority 2002, dated 2010)", "molecules": {"B1": {"name": "anti-PTHrP MoAb: mouse monoclonal antibody to human PTHrP (1-34) prepared from hybridoma #23-57-137-1 (FERM BP-5631) (antibody, V domains shown)", "VH": "EVQLVESGGDLVKPGGSLKLSCAASGFTFSSYGMSWIRQTPDKRLEWVATISSGGSYTYYPDSVKGRFTISRDNAKNTLYLQMSSLKSEDTAMFYCARQTTMTYFAYWGQGTLVTVSA", "VL": "QLVLTQSSSASFSLGASAKLTCTLSSQHSTYTIEWYQQQPLKPPKYVMDLKQDGSHSTGDGIPDRFSGSSSGADRYLSISNIQPEDEAMYICGVGDTIKEQFVYVFGGGTKVTVLGQP"}, "B2": {"name": "m/hMBC1Laλ: hybrid antibody: L chain mouse FR1, 2/human FR3, 4 (version a); humanized H chain (antibody, V domains shown)", "VH": "QVQLVESGGGVVQPGRSLRLSCAASGFTFSSYGMSWVRQAPGKGLEWVATISSGGSYTYYPDSVKGRFTISRDNSKNTLYLQMNSLRAEDTAVYYCARQTTMTYFAYWGQGTLVTVSS", "VL": "QLVLTQSSSASFSLGASAKLTCTLSSQHSTYTIEWYQQQPLKPPKYVMDLKQDGSHSTGDGIPDRFSGSSSGAERYLTISSLQSEDEADYYCGVGDTIKEQFVYVFGGGTKLTVL"}, "B3": {"name": "m/hMBC1Ldλ: hybrid antibody: L chain mouse FR1, 2/human FR3, 4 (version d, 87 isoleucine); humanized H chain (antibody, V domains shown)", "VH": "B2 VH", "VL": "B2 VL with Y91I"}, "B4": {"name": "hmmMBC1L(λ): hybrid antibody: L chain human FR1/mouse FR2, 3, 4; humanized H chain (antibody, V domains shown)", "VH": "B2 VH", "VL": "QLVLTQSPSASASLGASVKLTCTLSSQHSTYTIEWYQQQPLKPPKYVMDLKQDGSHSTGDGIPDRFSGSSSGADRYLSISNIQPEDEAMYICGVGDTIKEQFVYVFGGGTKVTVL"}}, "key": {"[1]": {"test_system": "Human chondrosarcoma cell HTB-94", "test": "Viability of cells (Premix WST-1 Cell Proliferation Assay System)", "format": "cell-based", "conditions": "20 μM, 2 hours before the addition of anti-PTHrP MoAb (FIG. 2)", "method": "Human chondrosarcoma cell HTB-94 (ATCC) was suspended in Dulbecco's Modified Eagle's Medium (DMEM) containing 10% FBS, L-glutamine, penicillin-streptomycin (all are available from GIBCO-BRL), and was cultured and proliferated at 37° C. under 5% CO2 wet condition.\nThat is, reduction ratio of tetrazolium salt (WST-1) by viable cells was determined from the increase in OD450, and it was considered as the index of the number of viable cells."}, "HTB-94 cells [2]": {"test_system": "HTB-94 cells", "test": "Western blotting of HTB-94 cell lysates", "format": "cell-based, human", "method": "In the experiment with regard to the following collagen type-X, the cells were treated by anti-PTHrP MoAb for further five days (for total seven days). All the cell lysates (50 μg as protein) of the above-mentioned cells were separated by SDS-PAGE using 12% gel and blotted on a nitrocellulose film (Bio-Rad Laboratories). The blocked film was incubated together with an anti-procaspase-3 antibody (Wako Pure Chemical) diluted to 1/100, an anti-PARP antibody, an anti-Bcl-2 antibody and an anti-Bax antibody (both from Santa Cruz Biotechnology), an anti-collagen type X antibody (Calbiochem-Novabiochem Corporation) and a peroxidase conjugated secondary antibody (Amersham) diluted to 1/1000.\nHere, PARP (poly(ADP-ribose) polymerase) is an enzyme important for the survival in a cell, and caspase-3 causes cleavage of this PARP.\nDetection was performed using ECL Western blotting detection system (Amersham). Each blot was further re-detected by ECL using anti-o-actin antibody (Santa Cruz Biotechnology) and the peroxidase conjugated secondary antibody."}, "HTB-94 cells [3]": {"test_system": "HTB-94 cells", "test": "Immunocytochemistry using anti-collagen type X antibody", "format": "cell-based, human", "conditions": "particularly at high concentration, seven days", "method": "Immunocytochemistry was performed by streptavidin-peroxidase method using histofine SAB-PO kit ([…]). […] Subsequently, the cells were transferred to 3% H2O2 methanol to block endogenous peroxidase activity, washed with PBS (pH 7.2), and then blocked with PBS containing normal 10% serum (secondary antibody) of the congeneric origin in order to make the background minimum and incubated with anti-collagen type X antibody (primary antibody) at room temperature for 2 hours. Afterwards the cells were washed with PBS, incubated with the secondary antibody at room temperature in a wet chamber for 20 minutes, and incubated with peroxidase conjugated streptavidin ([…]) for 20 minutes under the same conditions. Finally, coloring reaction was performed with 3,3-diaminobenzidine tetrahydrochloride (DAB) reagent (Dojindo). The cells were counterstained with hematoxylin and microscopically observed at 200-fold and 400-fold magnification."}, "HTB-94 cells [4]": {"test_system": "HTB-94 cells", "test": "TUNEL staining", "format": "cell-based, human", "conditions": "two days", "method": "TUNEL staining was performed using Apoptag Peroxidase Kit (Intergen Company). […] Subsequently, the cells were incubated with a TdT reaction mixture (TdT solution+[…] and dATP) at 37° C. for 60 minutes, and further incubated with peroxidase conjugated anti-dioxygenin antibody at room temperature for 30 minutes. The cells were stained with DAB and then counterstained with Mayer's hematoxylin and microscopically observed at 200-fold, 400-fold and 600-fold magnification."}, "HTB-94 cells [5]": {"test_system": "HTB-94 cells", "test": "RT-PCR", "format": "cell-based, human", "conditions": "100 μg/ml, two days, vs control", "method": "PCR of cDNA was performed using Ready-to-Go PCR beads (Pharmacia) and primers for human Bcl-2, Bax, Ihh, ColX (α1) and β-actin amplification (12.5 pmol(s) each).\nAmplification was performed using Perkin-Elmer/Cetus DNA Thermal Cycler (TAKARA SHUZO) on the conditions of 30 cycles each of 94° C., 0.5 min; 55° C., 0.5 min; 72° C., 0.5 min and last extension reaction at 72° C. for 7 minutes.\nElectrophoresis of the obtained PCR product (10 μL) was carried out on a 4% agarose gel, and stained and observed with ethidium bromide."}, "HTB-94 cells [6]": {"test_system": "HTB-94 cells", "test": "DNA fragmentation assay", "format": "cell-based, human", "conditions": "two days", "method": "That is, the cells were dissolved in a dissolution buffer, DNA was isolated, extracted with an organic solvent and ethanol precipitation was carried out. The precipitated DNA was centrifuged (12,000 g, 10 min) and then washed with 80% ethanol, and dissolved in 30 μl of TE buffer. Each sample (10 μl) was subjected to electrophoresis on a 1.2% agarose gel, and stained with ethidium bromide."}, "PTHrP (1-34) [7]": {"biological_target": "T1, PTHrP (1-34) (Homo sapiens, UniProt P12272)", "test": "Screening of hybridomas by solid phase RIA of culture supernatant", "format": "binding", "set-up": "purchased Peninsula", "conditions": "hybridoma culture supernatant", "method": "Hybridomas #23-57-154 and #23-57-137-1 which produce monoclonal antibody to human PTHrP (1-34) were produced as follows (Sato, K. et al., J. Bone Miner. Res. 8, 849-860, 1993). The amino acid sequence of human PTHrP (1-34) is shown in the SEQ ID No. 75.\nScreening of hybridomas was performed by measuring and selecting the existence of a PTHrP recognizing antibody by applying solid phase RIA method to the culture supernatant of the wells where growth was recognized in HAT culture medium. Hybridomas were collected from the wells where binding ability with an antibody was recognized, suspended to the culture medium prepared by adding OPI-supplement (Sigma) to the RPMI-1640 culture medium containing FCS 15%, and the hybridomas was simplified by the limiting dilution method."}, "PTHrP (1-34) [8]": {"biological_target": "T1, PTHrP (1-34)", "test": "ELISA measurement of antigen binding ability", "set-up": "coated with 100 μl of human PTHrP(1-34) (Peptide Research Institute); purchased Peptide Research Institute", "conditions": "expressed in COS-7 cells; H chain humanized version a", "method": "The ELISA plate for antigen binding measurement was prepared as follows. Each well of a 96 well plate for ELISA was coated with 100 μl of human PTHrP(1-34) (Peptide Research Institute) adjusted to 1 μg/ml concentration by the coating buffer. […] After the plate was incubated at room temperature and washed with PBS-Tween20, 100 μl of alkaline phosphatase (TAGO) conjugated goat anti-man IgG antibody was added. After the plate was incubated at room temperature and washed with PBS-Tween20, 1 mg/ml of a substrate solution (Sigma104, p-nitrophenylphosphate, SIGMA) was added, and, next, 405 nm absorption was measured with a micro plate reader (Bio Rad).\nThe ELISA plate for antigen binding measurement was prepared as follows. Each well of a 96 well plate for ELISA was coated with 100 μl of human PTHrP(1-34) adjusted to 1 μg/ml concentration by the coating buffer. After blocking with 200 μl of the dilution buffer, the culture supernatant of the COS-7 cells in which hybrid antibody or humanized antibody was expressed or the purified hybrid antibody or the humanized antibody was stepwise diluted and added to each well. After the plate was incubated at room temperature and washed with PBS-Tween20, 100 μl of alkaline phosphatase (TAGO) conjugated goat anti-man IgG antibody was added. After the plate was incubated at room temperature and washed with PBS-Tween20, 1 mg/ml of a substrate solution (Sigma104, p-nitrophenylphosphate, SIGMA) was added, and 405 nm absorption was then measured on a micro plate reader (Bio Rad)."}, "[9]": {"conditions": "0, 10, 30, 50, 100, and 200 μg/ml, two days"}}, "note": "Substitutions are numbered along the chain they refer to.", "data": [{"molecule": "DEVD-CHO", "values": [{"measurement": "effect of caspase-3 inhibitor on the effect of anti-PTHrP MoAb on cell viability", "setting": "[1]", "value": "inhibited the effect of this anti-PTHrP MoAb"}]}, {"molecule": "B1", "values": [{"measurement": "85 kDa fragment of PARP", "setting": "HTB-94 cells [2]; [9]", "value": "increased depending on the concentration"}, {"measurement": "Bax (protein)", "setting": "HTB-94 cells [2]; [9]", "value": "increased as the concentration of anti-PTHrP MoAb increased"}, {"measurement": "Bcl-2 (protein)", "setting": "HTB-94 cells [2]; [9]", "value": "decreased as the concentration of anti-PTHrP MoAb increased"}, {"measurement": "procaspase-3 (35 kDa)", "setting": "HTB-94 cells [2]; 100 μg/ml, two days", "value": "decreased"}, {"measurement": "procaspase-3 (35 kDa)", "setting": "HTB-94 cells [2]; 200 μg/ml, two days", "value": "decreased"}, {"measurement": "anti-PTHrP MoAb concentration at maximum collagen type X", "setting": "HTB-94 cells [2]; total seven days", "value": 50, "unit": "µg/mL"}, {"measurement": "collagen type X (protein)", "setting": "HTB-94 cells [2]; treated vs untreated cells, total seven days", "value": "more collagen type X in the cells treated with Anti-PTHrP MoAb than in untreated cells"}, {"measurement": "cell morphology (differentiation)", "setting": "HTB-94 cells [3]", "value": "a number of cells which roundly expanded were observed"}, {"measurement": "frequency of appearance of cells in apoptosis (stained brown)", "setting": "HTB-94 cells [4]; 0, 10, 100, or 200 μg/ml", "value": "increased depending on the concentration"}, {"measurement": "morphological changes characteristic of apoptosis", "setting": "HTB-94 cells [4]; after treatment", "value": "contraction and round outline were also recognized"}, {"measurement": "amount of expression of Bax (mRNA)", "setting": "HTB-94 cells [5]", "value": "increased"}, {"measurement": "amount of expression of Bcl-2 (mRNA)", "setting": "HTB-94 cells [5]", "value": "decreased"}, {"measurement": "fragmentation of DNA in nucleosome specific to apoptosis", "setting": "HTB-94 cells [6]; 10 μg/ml", "value": "observed"}, {"measurement": "fragmentation of DNA in nucleosome specific to apoptosis", "setting": "HTB-94 cells [6]; 200 μg/ml", "value": "observed"}, {"measurement": "binding ability with PTHrP (1-34)", "setting": "PTHrP (1-34) [7]", "value": "strong binding ability"}]}, {"molecule": "B2", "values": [{"measurement": "PTHrP binding ability compared with chimeric antibody", "setting": "PTHrP (1-34) [8]", "value": "equivalent to chimera #23-57-137-1 antibody"}]}, {"molecule": "B3", "values": [{"measurement": "PTHrP binding ability compared with chimeric antibody", "setting": "PTHrP (1-34) [8]", "value": "equivalent to chimera #23-57-137-1 antibody"}]}, {"molecule": "B4", "values": [{"measurement": "PTHrP binding ability compared with chimeric antibody", "setting": "PTHrP (1-34) [8]", "value": "equivalent to chimera #23-57-137-1 antibody"}]}]}
